# pKd: −log10 of the molar value.
# Target: rabbit skeletal muscle F-actin (rabbit) (UniProt P68135)
# Experiment: co-sedimentation; high-speed F-actin cosedimentation: 5 uM UtrN-R3 incubated 30 min with 0-160 uM phalloidin-stabilized F-actin, 100,000g for 20 min; F-buffer (4.5 mM Tris-HCl pH 8.0, 0.18 mM CaCl2, 50 mM KCl, 2 mM MgCl2, 1.2 mM ATP, 0.5 mM DTT); bound and free by densitometry of Coomassie gels, hyperbola fit
row,Substance,pKd
1,"UtrN-R3 WT, bacterially derived (mouse utrophin fragment encoding the N terminus through spectrin repeat 3, not phosphorylated) (from UniProt E9Q6R7 1-3430) (domain or fragment)",3.98
2,"UtrN-R3 WT, insect cell-derived (mouse utrophin fragment encoding the N terminus through spectrin repeat 3, phosphorylated) (from UniProt E9Q6R7 1-3430) (domain or fragment)",4.07

# Reference: publication PMC9922815
